Results taken from patent US20220175942A1 (OXFORD UNIVERSITY INNOVATION, published 2022).
Numbering of substitutions follows the chain as printed.

T1: CCL19_HUMAN (human, UniProt Q99731 22-98)
T1 construct: Biotinylated (detected with streptavidin-Alexa647) in yeast display; AlexaFluor 647 labelled (Almac) in thermophoresis
T1 sequence: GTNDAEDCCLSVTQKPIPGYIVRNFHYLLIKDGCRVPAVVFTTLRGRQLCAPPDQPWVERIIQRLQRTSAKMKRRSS

T2: CXCL10_HUMAN (human, UniProt P02778 22-98)
T2 construct: Biotinylated (detected with streptavidin-Alexa647) in yeast display; AlexaFluor 647 labelled (Almac) in thermophoresis
T2 sequence: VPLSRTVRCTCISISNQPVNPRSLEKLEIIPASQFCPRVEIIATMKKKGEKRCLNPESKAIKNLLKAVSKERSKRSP

T3: P974_AMBCA (Amblyomma cajennense, UniProt A0A023FDY8 22-118)
T3 construct: Tick evasin; also called Evasin
T3 sequence: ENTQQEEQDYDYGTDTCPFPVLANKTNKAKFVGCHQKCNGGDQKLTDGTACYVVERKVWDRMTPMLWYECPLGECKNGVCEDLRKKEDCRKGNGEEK

T4: P991_AMBCA (Amblyomma cajennense, UniProt A0A023FFD0 29-136)
T4 construct: Tick evasin; also called Evasin
T4 sequence: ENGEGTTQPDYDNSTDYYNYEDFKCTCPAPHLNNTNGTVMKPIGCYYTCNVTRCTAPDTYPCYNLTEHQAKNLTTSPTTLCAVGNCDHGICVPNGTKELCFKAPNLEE

T5: P1243_AMBAM (Amblyomma americanum, UniProt A0A0C9S461 26-123)
T5 construct: Tick evasin; also called Evasin
T5 sequence: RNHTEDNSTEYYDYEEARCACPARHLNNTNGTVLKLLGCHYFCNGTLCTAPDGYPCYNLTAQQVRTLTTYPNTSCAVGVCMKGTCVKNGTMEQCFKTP

T6: P546_AMBCA (Amblyomma cajennense, UniProt A0A023FBW7 22-118)
T6 construct: Tick evasin; also called Evasin
T6 sequence: T3 sequence with Q8E, E69S, D88E

T7: CCL1_HUMAN (human, UniProt P22362 24-96)
T7 construct: Biotinylated (detected with streptavidin-Alexa647) in yeast display; AlexaFluor 647 labelled (Almac) in thermophoresis
T7 sequence: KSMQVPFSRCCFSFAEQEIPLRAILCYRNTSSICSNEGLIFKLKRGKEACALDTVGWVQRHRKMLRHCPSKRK

T8: CXCL8_HUMAN (human, UniProt P10145 28-99)
T8 construct: Biotinylated (detected with streptavidin-Alexa647) in yeast display; AlexaFluor 647 labelled (Almac) in thermophoresis
T8 sequence: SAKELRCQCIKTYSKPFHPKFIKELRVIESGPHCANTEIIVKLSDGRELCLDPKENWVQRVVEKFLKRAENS

T9: CCL25_HUMAN (human, UniProt O15444 24-150)
T9 construct: Biotinylated (detected with streptavidin-Alexa647) in yeast display; AlexaFluor 647 labelled (Almac) in thermophoresis
T9 sequence: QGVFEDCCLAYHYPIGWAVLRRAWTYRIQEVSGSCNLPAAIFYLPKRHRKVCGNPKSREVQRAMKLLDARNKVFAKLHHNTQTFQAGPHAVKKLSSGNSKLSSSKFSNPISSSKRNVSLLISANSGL

T10: CCL5_HUMAN (human, UniProt P13501 24-91)
T10 construct: Biotinylated (detected with streptavidin-Alexa647) in yeast display; AlexaFluor 647 labelled (Almac) in thermophoresis
T10 sequence: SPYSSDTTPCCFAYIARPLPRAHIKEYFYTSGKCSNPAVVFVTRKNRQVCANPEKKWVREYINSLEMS

T11: CCL22_HUMAN (human, UniProt O00626 25-93)
T11 construct: Biotinylated (detected with streptavidin-Alexa647) in yeast display; AlexaFluor 647 labelled (Almac) in thermophoresis
T11 sequence: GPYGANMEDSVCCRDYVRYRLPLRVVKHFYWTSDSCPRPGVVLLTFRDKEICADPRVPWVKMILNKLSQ

T12: CCL18_HUMAN (human, UniProt P55774 21-89)
T12 construct: Biotinylated (detected with streptavidin-Alexa647) in yeast display; AlexaFluor 647 labelled (Almac) in thermophoresis
T12 sequence: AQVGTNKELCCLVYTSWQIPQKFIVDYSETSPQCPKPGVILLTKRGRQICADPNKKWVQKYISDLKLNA

T13: CCL8_HUMAN (human, UniProt P80075 24-99)
T13 construct: Biotinylated (detected with streptavidin-Alexa647) in yeast display; AlexaFluor 647 labelled (Almac) in thermophoresis
T13 sequence: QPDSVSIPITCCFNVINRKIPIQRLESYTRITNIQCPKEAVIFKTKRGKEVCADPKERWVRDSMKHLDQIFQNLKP

T14: P467_RHIPU (Rhipicephalus pulchellus, UniProt L7M8Z8 22-127)
T14 construct: Tick evasin; also called Evasin
T14 sequence: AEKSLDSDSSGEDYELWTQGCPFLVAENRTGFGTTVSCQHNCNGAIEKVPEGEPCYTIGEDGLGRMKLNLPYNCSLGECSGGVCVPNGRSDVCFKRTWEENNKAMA

T15: P1181_AMBMA (Amblyomma maculatum, UniProt G3MIX6 26-115)
T15 construct: Tick evasin; also called Evasin
T15 sequence: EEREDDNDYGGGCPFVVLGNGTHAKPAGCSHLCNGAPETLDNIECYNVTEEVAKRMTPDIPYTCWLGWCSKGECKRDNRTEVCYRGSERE

T16: P1182_AMBMA (Amblyomma maculatum, UniProt G3MJ83 27-115)
T16 construct: Tick evasin; also called Evasin
T16 sequence: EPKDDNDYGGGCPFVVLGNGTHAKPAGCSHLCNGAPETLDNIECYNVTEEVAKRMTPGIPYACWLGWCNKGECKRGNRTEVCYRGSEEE

T17: CCL4 (human, UniProt P13236 24-92)
T17 construct: Biotinylated (detected with streptavidin-Alexa647) in yeast display; also called human CCL4
T17 sequence: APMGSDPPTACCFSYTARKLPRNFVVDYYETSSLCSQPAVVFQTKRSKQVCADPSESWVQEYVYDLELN

B1: P1224_IXORI (other)
chain: SDLCKMEAESSPFKLPQSSLLDAPDEEGCKYQLLFVEAEGPLVVNCTKDCPNGKIRTVVEGELCIAMVKTSSSGEATGLVGSCKRGSCVKKDDPCRTFTLSEEGDDDEEDEEEEEDEEEDEEEDEEEEEEDEEEED
notes: Tick evasin; also called Evasin
B2: P1252_AMBAM (other)
chain: RGGAASVPANASIPGCGDAQTTPAAPEDQPKHYVVYRDGNGCEVKIIGTWMTTEDYNCLPDTFRKNRAPHGKVKLPASCKKTCGNAVQNLKDGTPCRKVFGDLGRRRNLIKNGCLVGACQSGLCVSGNRTISCYIPPNSTDTRATPGSFAE
notes: as for B1
B3: CCL17_HUMAN (ligand)
chain: ARGTNVGRECCLEYFKGAIPLRKLKTWYQTSEDCSRDAIVFVTVQGRAICSDPNNKRVKNAVKYLQSLERS
notes: Biotinylated (detected with streptavidin-Alexa647) in yeast display; AlexaFluor 647 labelled (Almac) in thermophoresis
B4: P993_AMBPA (other)
chain: HRHYDPNEPCLIAGLKTPRDALPAGCRYDCMIKKNQKLRDGLLCLDVPEKVVKRMVNYLNYSCPLGTCRKGICKRKHRNVRCQKYPVFYMSPPK
notes: Tick evasin
B5: P1006_AMBCA (other)
chain: DTIGGIPGCGDPATTSAPEDQPKHYAVRTDKNGCKVMVIGTWMTKEDHNLLPPYISKERAPSGKVQLPASCKKNCHGKLKNLPNGTPCREVFGDLRRRRKHIKDGCKVGKCQNGLCVSEERIISCYLPPNITDPRPTHGPLAE
notes: as for B1
B6: P1209_AMBPA (other)
chain: KTDTKNAAGELPPKVAIPGCEDPATTKAPLPDDPRYYGVTIDKDGCQRKVLGSSQRQQRQVQNGRKPGRKGRGRRPVFVDLKLTVDCKRKCNGTYSQLPDGEPCLVCDGEPYGRHRTIKGGCYQGNCSSGQCHRGERKVNCYIPKNITNNVLNSVNLAE
notes: as for B1
B7: CCL3_HUMAN (ligand)
chain: SLAADTPTACCFSYTSRQIPQNFIADYFETSSQCSKPGVIFLTKRSRQVCADPSEEWVQKYVSDLELSA
notes: as for B3
B8: P1014_AMBCA (other)
chain: DIIGGIPGCGDPTTTSAPEVPPKHFAVRTDKDGCTLMIIGTWMTTEDHNRLPPDIGEKRAPYGRVQLPASCKKNCHGKVKNLPNGTPCREVFGDPRRGRKHIKNGCTVGKCQSGLCVTDKRIISCYIPPNITDPIPTHGPWAE
notes: as for B1

Legend:
CCL3_HUMAN = biological target: B7; experiment: yeast surface display library FACS screen, labelled chemokine (col C: isolated in)
CCL19_HUMAN [1] = biological target: T1, CCL19_HUMAN; experiment: as above
CXCL10_HUMAN [2] = biological target: T2, CXCL10_HUMAN; experiment: as above
CCL20_HUMAN [3] = biological target: T18, CCL20_HUMAN (human, UniProt P78556 27-96); experiment: as above
T18 construct: Biotinylated (detected with streptavidin-Alexa647) in yeast display; AlexaFluor 647 labelled (Almac) in thermophoresis
T18 sequence (P78556 27-96 limits assumed): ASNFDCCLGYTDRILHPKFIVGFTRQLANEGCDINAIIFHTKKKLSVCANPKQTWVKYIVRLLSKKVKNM

CCL17_HUMAN [4] = biological target: B3; experiment: as above
CCL11_HUMAN = biological target: T19, CCL11_HUMAN (human, UniProt P51671 24-97); experiment: as above
T19 construct: Biotinylated (detected with streptavidin-Alexa647) in yeast display; AlexaFluor 647 labelled (Almac) in thermophoresis
T19 sequence (P51671 24-97 limits assumed): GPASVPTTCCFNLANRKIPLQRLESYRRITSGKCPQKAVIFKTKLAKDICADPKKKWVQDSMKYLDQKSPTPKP

P974_AMBCA = biological target: T3, P974_AMBCA; experiment: as above
P991_AMBCA = biological target: T4, P991_AMBCA; experiment: as above
P1243_AMBAM [5] = biological target: T5, P1243_AMBAM; experiment: as above
P546_AMBCA [6] = biological target: T6, P546_AMBCA; experiment: yeast surface display FACS re-test, >3 fold MFI over control (col D);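 note: yeast displaying putative tick Evasins stained with biotinylated human chemokine plus streptavidin-Alexa647, flow cytometry, positive when MFI exceeds 3-fold the empty-vector or no-chemokine background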
CCL1_HUMAN = biological target: T7, CCL1_HUMAN; experiment: yeast surface display library FACS screen, labelled chemokine (col C: isolated in)
CXCL8_HUMAN = biological target: T8, CXCL8_HUMAN; experiment: as above
CCL25_HUMAN [7] = biological target: T9, CCL25_HUMAN; experiment: as above
CCL5_HUMAN [8] = biological target: T10, CCL5_HUMAN; experiment: yeast surface display FACS re-test, >3 fold MFI over control (col D);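 note: yeast displaying putative tick Evasins stained with biotinylated human chemokine plus streptavidin-Alexa647, flow cytometry, positive when MFI exceeds 3-fold the empty-vector or no-chemokine background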
CCL22_HUMAN = biological target: T11, CCL22_HUMAN; experiment: as above
CCL19_HUMAN [9] = biological target: T1, CCL19_HUMAN; experiment: as above
CCL5_HUMAN [10] = biological target: T10, CCL5_HUMAN; experiment: yeast surface display library FACS screen, labelled chemokine (col C: isolated in)
CCL18_HUMAN = biological target: T12, CCL18_HUMAN; experiment: yeast surface display FACS re-test, >3 fold MFI over control (col D);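 note: yeast displaying putative tick Evasins stained with biotinylated human chemokine plus streptavidin-Alexa647, flow cytometry, positive when MFI exceeds 3-fold the empty-vector or no-chemokine background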
CCL20_HUMAN [11] = biological target: T18, CCL20_HUMAN; experiment: as above
CCL17_HUMAN [12] = biological target: B3; experiment: as above
CCL8_HUMAN = biological target: T13, CCL8_HUMAN; experiment: as above
CXCL10_HUMAN [13] = biological target: T2, CXCL10_HUMAN; experiment: as above
CCL25_HUMAN [14] = biological target: T9, CCL25_HUMAN; experiment: as above
P467_RHIPU = biological target: T14, P467_RHIPU; experiment: yeast surface display library FACS screen, labelled chemokine (col C: isolated in)
P1181_AMBMA = biological target: T15, P1181_AMBMA; experiment: as above
P1182_AMBMA = biological target: T16, P1182_AMBMA; experiment: as above
P546_AMBCA [15] = biological target: T6, P546_AMBCA; experiment: microscale thermophoresis, AlexaFluor 647 labelled chemokine
P1243_AMBAM [16] = biological target: T5, P1243_AMBAM; experiment: yeast surface display FACS re-test, >3 fold MFI over control (col D);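 note: yeast displaying putative tick Evasins stained with biotinylated human chemokine plus streptavidin-Alexa647, flow cytometry, positive when MFI exceeds 3-fold the empty-vector or no-chemokine background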
CCL4 = biological target: T17, CCL4; experiment: as above

B1
binding result (CCL3_HUMAN): binds | binding result (CCL19_HUMAN [1]): binds | binding result (CXCL10_HUMAN [2]): binds

B2
binding result (CCL20_HUMAN [3]): binds | binding result (CCL17_HUMAN [4]): binds | binding result (CCL11_HUMAN): binds

B3
binding result (P974_AMBCA): binds | binding result (P991_AMBCA): binds | binding result (P1243_AMBAM [5]): binds | binding result (P546_AMBCA [6]): binds

B4
binding result (CCL1_HUMAN): binds | binding result (CCL20_HUMAN [3]): binds | binding result (CXCL8_HUMAN): binds | binding result (CCL17_HUMAN [4]): binds | binding result (CCL11_HUMAN): binds | binding result (CCL25_HUMAN [7]): binds | binding result (CCL5_HUMAN [8]): binds

B5
binding result (CCL1_HUMAN): binds | binding result (CXCL8_HUMAN): binds | binding result (CCL11_HUMAN): binds | binding result (CCL25_HUMAN [7]): binds | binding result (CCL22_HUMAN): binds | binding result (CCL19_HUMAN [9]): binds | binding result (CCL5_HUMAN [8]): binds

B6
binding result (CCL1_HUMAN): binds | binding result (CXCL8_HUMAN): binds | binding result (CCL5_HUMAN [10]): binds | binding result (CCL11_HUMAN): binds | binding result (CCL19_HUMAN [9]): binds | binding result (CCL18_HUMAN): binds | binding result (CCL20_HUMAN [11]): binds | binding result (CCL17_HUMAN [12]): binds | binding result (CCL8_HUMAN): binds | binding result (CXCL10_HUMAN [13]): binds | binding result (CCL25_HUMAN [14]): binds

B7
binding result (P467_RHIPU): binds | binding result (P1181_AMBMA): binds | binding result (P1182_AMBMA): binds | Kd (P546_AMBCA [15]): 171 nM | binding result (P1243_AMBAM [16]): binds

B8
binding result (CCL1_HUMAN): binds | binding result (CCL11_HUMAN): binds | binding result (CCL25_HUMAN [7]): binds | binding result (CCL4): binds
